For assay [1], the target named is U1–70K (SNRNP70) 1–216, recombinant (human, UniProt P08621-1 1-216). The assay can be described thus: pull-down.
For assay [2], the target named is U1 snRNP (lacking the Sm ring), reconstituted (human, UniProt P08621-1 1-216; P09012 1-282; P09234 1-159). The assay can be described thus: pull-down.

This note sets out measurements from PMC12952242 (Molecular cell, 2025).

U1 snRNP (lacking the Sm ring), reconstituted, sequence (P08621 1-216, chain 1 of 3): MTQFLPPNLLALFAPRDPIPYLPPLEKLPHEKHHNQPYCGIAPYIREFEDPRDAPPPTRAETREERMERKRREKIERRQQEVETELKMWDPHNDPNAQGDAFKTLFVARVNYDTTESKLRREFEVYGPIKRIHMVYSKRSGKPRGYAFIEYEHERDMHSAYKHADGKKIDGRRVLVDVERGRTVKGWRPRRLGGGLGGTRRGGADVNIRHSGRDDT
U1 snRNP (lacking the Sm ring), reconstituted, sequence (P09012 whole entry, chain 2 of 3): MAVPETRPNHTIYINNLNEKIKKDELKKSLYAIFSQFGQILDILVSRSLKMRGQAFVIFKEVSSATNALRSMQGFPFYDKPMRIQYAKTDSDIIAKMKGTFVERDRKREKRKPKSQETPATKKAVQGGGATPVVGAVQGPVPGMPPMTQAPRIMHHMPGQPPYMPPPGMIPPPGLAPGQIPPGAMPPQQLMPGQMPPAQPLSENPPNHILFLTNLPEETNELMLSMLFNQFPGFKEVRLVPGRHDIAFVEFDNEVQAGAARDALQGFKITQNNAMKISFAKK
U1 snRNP (lacking the Sm ring), reconstituted, sequence (P09234 whole entry, chain 3 of 3): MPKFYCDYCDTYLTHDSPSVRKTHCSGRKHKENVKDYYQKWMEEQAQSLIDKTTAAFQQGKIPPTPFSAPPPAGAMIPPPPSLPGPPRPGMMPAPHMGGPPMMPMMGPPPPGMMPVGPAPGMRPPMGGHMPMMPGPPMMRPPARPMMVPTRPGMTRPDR
U1–70K (SNRNP70) 1–216, recombinant, sequence (P08621 1-216): as the sequence (P08621 1-216, chain 1 of 3) above

B1: ZNF207 1–122 (ZnF+Hel), recombinant (domain or fragment)
chain: not shown
Take B1: the binding result in assay [1] and in assay [2] was “binds” throughout.

B2: ZNF207 full-length, recombinant (natural protein)
chain: not shown
As for B2, in assay [2], the binding result is “binds”.
